Measured values: patent US12440565

Biological target: CD40 on the surface of mature dendritic cells (mDC) (human) (UniProt P25942)
Experiment: cell-based or functional assay

Chain of CD40 on the surface of mature dendritic cells (mDC) (human) (P25942 21-277): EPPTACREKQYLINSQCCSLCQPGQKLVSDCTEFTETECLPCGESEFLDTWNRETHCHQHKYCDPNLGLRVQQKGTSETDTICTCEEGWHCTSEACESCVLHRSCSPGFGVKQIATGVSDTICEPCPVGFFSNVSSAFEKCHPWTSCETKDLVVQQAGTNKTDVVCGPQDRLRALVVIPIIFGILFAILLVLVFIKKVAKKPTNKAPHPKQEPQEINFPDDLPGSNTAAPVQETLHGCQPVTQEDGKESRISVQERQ

- CD83+ (%) of mDC, agonist at 2 µg/mL (control group 81.00): 88.2%
- IL-12p70 (pg/mL), agonist at 2 µg/mL (control group 50.0): 874 pg/mL
Substance: CD40L recombinant protein (from UniProt P29965 113-261) (ligand)
